Test results taken from patent US20180208663A1 (AGENCY FOR SCIENCE TECHNOLOGY AND RESEARCH, published 2018).
Each block holds one binder with its values, some of them ahead of it.

How the values were obtained:
recombinant human IL-2Rβ = target: T1, recombinant human IL-2Rβ (human, UniProt P14784 27-240); assay: ELISA, scFv titrated (nM) on IL-2Rβ
T1 construct: also called CD122; interleukin 2 receptor β
T1 sequence (looked up): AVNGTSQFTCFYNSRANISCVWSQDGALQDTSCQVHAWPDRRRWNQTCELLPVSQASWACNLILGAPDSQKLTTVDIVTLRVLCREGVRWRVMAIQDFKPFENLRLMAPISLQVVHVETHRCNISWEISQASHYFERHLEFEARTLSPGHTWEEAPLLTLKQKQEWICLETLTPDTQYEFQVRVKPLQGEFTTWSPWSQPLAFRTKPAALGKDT

recombinant human γc = target: T2, recombinant human γc (human, UniProt P31785 23-262, limits assumed); assay: ELISA, scFv titrated (nM) on γc (IL-2Rγc)
T2 construct: also called common γ chain; IL-2Rγ
T2 sequence (looked up): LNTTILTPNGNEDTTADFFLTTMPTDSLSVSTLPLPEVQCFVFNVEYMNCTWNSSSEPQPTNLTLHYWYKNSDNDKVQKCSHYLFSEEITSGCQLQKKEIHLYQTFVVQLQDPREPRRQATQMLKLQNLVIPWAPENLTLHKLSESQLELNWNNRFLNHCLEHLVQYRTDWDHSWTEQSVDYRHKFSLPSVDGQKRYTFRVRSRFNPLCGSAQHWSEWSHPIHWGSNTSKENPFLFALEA

EC50 (read off the curve) (recombinant human IL-2Rβ): ~1 nM
B1: P2C4_FW2 single chain antibody (scFv)
scFv: EVQLVQSGAEVKKPGASVKVSCKASGYTFTNYYMHWVRQAPGQGLEWMGAIMPSRGGTSYPQKFQGRVTITADKSTSTAYMELSSLRSEDTAVYYCARGEYYYDSSGYYYWGQGTLVTVSSGGGGSGGGGSGGGGSQSVLTQPPSVSGAPGQRVTISCTGTSSDIGHYDFVSWYQQLPGTAPKLLIYDINNRPSGVPDRFSGSKSGTSASLAITGLQAEDEADYYCSAYTSSDTLVFGGGTKLTVL

EC50 (read off the curve) (recombinant human γc): ~60 nM
B2: P1A3_FW2 single chain antibody (scFv)
scFv: EVQLVESGGGLVQPGGSLRLSCAASGGSFSGYYWSWVRQAPGKGLEWVSEINHSGSTNYNPSLKSRFTISRDNSKNTLYLQMNSLRAEDTAVYYCARSPGGYSGGYFQHWGQGTLVTVSSGGGGSGGGGSGGGGSDIQMTQSPSSLSASVGDRVTITCRSSQSLLHSNGYNYLDWYQQKPGKAPKLLIYLGSNRDSGVPSRFSGSGSGTDFTLTISSLQPEDFATYYCMQGTHWPWTFGQGTKVEIK
